According to the DeepSol protein solubility set:

Test: soluble on expression in E. coli; label from the status in PepcDB or PDB records

Sequence	soluble on expression in E. coli
GMKSSQPFIYEAHAARVVFGAGSSSQVAAEVERLGAKRALVLCTPNQQAEAERIADLLGPLSAGVYAGAVMHVPIESARDATARAREAGADCAVAVGGGSTTGLGKAIALETGMPIVAIPTTYAGSEVTPVYGLTEAGTKRTGRDPRVLPRTVIYDPALTVGLPRGLSVTSALNAIAHAAEGLYARDANPVMSLMAEEGIRALAAGIPAVFNDPADLDARSQCLYGAWLCGTVLGGVGMALHHKLCHTLGGSFNLPHAETHTIVLPHALAYNAAAVPEAMARIRRATGAGEQSAAATLFDLAQRHGAPVALRDIGMREEDLDRAADIALASPYWNPRPIEREPIRALLQAAYEGVRPD	soluble
MGKSELSGRLNWQALAGLKASGAEQNLYNVFNAVFEGTKYVLYEKPKHLKNLYAQVVLPDDVIKEIFNPLIDLSTTQWGVSPAFAIENTETHKILFGEIKRQDGWVEGKDPSAGRGNAHERSCKLFTPGLLKAYRTIGGINDEEILPFWVVFEGDITRDPKRVREITFWYDHYQDNYFMWRPNESGEKLVQHFNEKLKKYLD	soluble
MVLLHKSTHIFPTDFASVSRAFFNRYPNPYSPHVLSIDTISRNVDQEGNLRTTRLLKKSGKLPTWVKPFLRGITETWIIEVSVVNPANSTMKTYTRNLDHTGIMKVEEYTTYQFDSATSSTIADSRVKFSSGFNMGIKSKVEDWSRTKFDENVKKSRMGMAFVIQKLEEARNPQF	not soluble
FLGELLIDLPLPVDTPSVDQCEKCRACITSCPTQAIVEDKVVDARRCISYLTIEFDGVIPEEFRKPMGNRIYGCDDCQLVCPWNRYADVTEQEDFHRRESFHNPDLVE	not soluble
MDTNWLYVLLQKSTADPLERLKLGNVILNEVSQRKVSPHPKLVNDFLDVMSGWLTGSNFKVSTIGLEILDAALRTSPDVLASYYFDRCSVLIERMGDAKVQVREMAINLCLQLAYLENSSPVMLLDRLCVPGTGFQHKQWLVKVGSLNILREFLSSSFALVIQQAITLIPQLCRLTNDPNSEVRDVSTQCLIDLMVYGGKPIVAKIAATRLINEQKMATLLQRYQTTVATRGDLPPKHTITMETTPAQPSRNSLLRRSLRSPAKIIHPSASTTSFTSSARLSTPPRPTTTAAQSLSLAPQTPSPLSLPSPSGGQMSRSRDLTRSSLRAPAGISISRYRSSSCAPAAQCAITLDDFKKSFTAVPKTTIYSNHDIREKLELANLVLRNANEDWSKRANQLKLIRSIIINCDENIDRSLLISIINELADALEFSIRDLRSQIVREAAVTCSFLFETFGMEVKNVAECVLPAALAQVAVSTKVIASSAATLTVFIVQKIQTRQIFTTLSELSSSKAKEQRRQLAVVLETLIASWDLKSKQPILKQIAQLVQNAICDADGETRVAGRKAFAKLEQLHGTTADLIFRELDPAKQKMLRDGVSSSSSSLNSDRDNNNQKQQPNQQNISQKFLSQRSASAVDKSIQLSVKPQTTAIPSRPTAMPMNNRLPKSSTSTSFSAVRSSGYGQNQSTTPNRAKTPSDGFAGSSPHYTNGNNNNKSSSSSPSTSTHQTPIQRVASNLGSSSFVASLTQEQANCLQNAMNTAKDEMSKNNEDDEFLLDEIRKTPPKEVPRSYNNSPFKPSNLDSSVHRSYNNNSPFRPSSGSVGSGSNGSVQSIEHILKACTSSSLNEKRDAIVNLNQVITDPNLCQLECKNIGDTLSRLLAEGNNTLIISILDTISIFIKFQYKKLDNWLKLALGKLFAKMGADALPNVKSALSSTQKMFLTTFDPTFQLKAVCDFMCDPVHLLSPKSRLALLEYICLLFEEIWPEDPRCLERQTHLDTPYTRAAIRKMFAWMFDPRIGAILMPACERLVCALFALNAADFTMIFGELPSECRDWAYRILQLNGQQNNQKPIEKEKERFISNNNYKPCPLDNEEIEKPIMKTTYSTYESTRKEYSQTERIATENQYSTPPPPDYRTSTAHLAKNHVDQAAYIRNQLDAIRDFEKADKLNEAMANLHGMMCEGSFTLWNQFFDELLDSIYQILSTFSQSIRKKLALRILQKMCTAQATKLFDSTEIAISKVLQCACTSDDNTMGVAAEDCLRILASHLPLTRVVLISRRILSQDDDDQRGVLILKMLTRMFQDIDIEELHLIVNDVAPCFVTAYESMSSTVRKCAVFGLVALVQRVGMQRMEPHLRTLNASKLNLIDLYVGRAKSSESGASSN	not soluble
MNNYLRKLVEGQHLTEEEMYKAGLLLLNENILESEIAAFLVLLKAKGETAEEIYGLVRALREKALPFSNHIQGAMDNCGTGGDGAQTFNISTTSAFVLAGAGVKVAKHGNRAVSSKTGSADLLEELGVNISSTPNEIDYLLEHVGIAFLFAPAMHPALKRIMKIRKELNVPTIFNLIGPLTNPVNLETQFVGIYKRDMLLPVAQVLQKLGRKQALVVNGSGFLDEASLQGENHVVILKDNEIVETSIEPEKYGFSIVKNEEIRGGNSKENAKITLGVLSGEKSVYRDTVLFNAGLALFANGKAKTIEEGITLAAHSIDSGKALAKLNLLIAASNEELERVN	not soluble
MGSDKIHHHHHHMKILLHMCCGPCAAYPVEQLRGQGAAVTGYWFNHNIHPYQEYMRRRDTVRAYAEKVRLDVIWRDEYRLEEFLAAVAQNPDDRCFYCYFSRLDAVAAAAAAGGFDAFSSTLLYSRYQKHDAIRDCAERAAERHGVAFHYDDYRRGWQEGIRLSKELGLYRHQYCGCIYSEKERYHPREGAK	not soluble
MLKRRRFHVHFGWILFHCQDCMRHEEGSEESESSFTEMVAEELKLREAQAQEDEWRADRLLLDAKKAASQYQKEADKCSMGMETCELAREKAEAALDEQRRLSYMWELRARQGGWKEGTVASDVI	soluble
MPSLAELTKSLSIAFENGDYAACEKLLPPIKIELIKNNLLIPDLSIQNDIYLNDLMITKRILEVGALASIQTFNFDSFENYFNQLKPYYFSNNHKLSESDKKSKLISLYLLNLLSQNNTTKFHSELQYLDKHIKNLEDDSLLSYPIKLDRWLMEGSYQKAWDLLQSGSQNISEFDSFTDILKSAIRDEIAKNTELSYDFLPLSNIKALLFFNNEKETEKFALERNWPIVNSKVYFNNQSKEKADYEDEMMHEEDQKTNIIEKAMDYAISIENIV	soluble
GPNANPIPEHFFAPYIDMSLSVHKPLVEYAKLTGTKYFTLAFILYSSVYNGPAWAGSIPLEKFVDEVRELREIGGEVIIAFGGAVGPYLCQQASTPEQLAEWYIKVIDTYNATYLDFDIAAGIDADKLADALLIVQRERPWVKFSFTLPSDPGIGLAGGYGIIETMAKKGVRVDRVNPMTMDYYWTPSNAENAIKVAENVFRQLKQIYPEKSDEEIWKMIGLTPMIGVNDDKSVFTLEDAQQLVDWAIQHKIGSLAFWSVDRDHPGPTGEVSPLHRGTNDPDWAFSHVFVKFMEAFGYTFSAQTSEASVPT	soluble
MGSDKIHHHHHHMDEMKVIEIIKKTLKFSNENIVKGIDDDCAIIKIDENFYLVATTDMMVKKAHIPSILSPYEIGGRILTANVSDIASMGAKPLAFLVSISLSKEEANEKFIKELYSGLDDFSKLYDCPVVGGDTNRGDELILSGTAFGITDNPIYRRGKVGDDICVTNDLGRVYCALTLYYMLKENKISYKEFERLCQKYPKIIEKLRKPIARIKEGLLMNKLINGCCDISDGLGKEITYFKNFEIYSDRIFKLIPEDVIEFCDAFNLNPIKVALNSGEEFELLFTTSKFNKVKDSLKGYSKIYKIGKIIEDGQFIDGEEFYGGGYIHKW	not soluble
MQGLTMDDISLSIARNMFHLQVYESDGVRFEDLFSKIMYYKSPDFQQVKPYGNIGDRKNDGFIKGQGVYYQVYAPEDASNNVLAAVNKIKDDFEGLRDYWHDICPIKKYYFVLNDKYKGSLPQLHKELIVLQSDFNLIDTGVIVAKDLERELFNLPDDMIRSVVGHLPDIDHEEYMFVSGFTCFISAWINFEKIARHKVFSAKQPNRPLFIGKVVNALVKNKIISRQDATFIKKITEVRNSLVHGVSMLVPKKNEIDMLIFITEKIKPAGVCRLD	not soluble
MRYAEVLIPLALEGSFHYRLAEGLAEKAIVGMRCVVPFGAKRYYTGIIIGLSDKRPNLQISFKEVLFLPDDKPSVTASQLSLWQWLSAYYICTQGEVLRAALPAALLPESHTVIHYNTDFEADSRLSRDEEELLDILESAKGRTYTLDALQKAVGKRAIRAFTSLVERGAIRLEEEVKSRYKPKSEVFVRLAEPFRTEKTFASLLDSLHRAPKQSALLLHWAELITEHSLPYSSPMPQRLLAESDPHATVTLSALKKKGIFLSESVTHSVMYSAGGGEYRLWEQPQEEEKAIQSEESSTDSAVSASLPQKPLSLLYTHDFRRKEKQLLEWTEEVVRSGGQVLYLSPEANKRGGSDTLSTRMAERLGSCLLSYHAFESDAKRVEVWNRLATTEYPCVVLGVRSALFLPFRRLRLIIVDEEQEYLYKQQDPAPRFHTRQVAARLGRIHDCPVVLASATPSAEVLHQVRHKACELITWPDDRVRPRFDLEVIDMGKMRRQRQVGAGELLSFPLVSAIEETIRQKKMAVVLQNRRGFAPYIICSSCGEKLRCIHCDVSLTYHKHSCMLVCHYCGYSRPLPRICPSCKRASGVGEPSSLQPVGYGAERIEEELKRRFPTVSILRMDSDMAMSRTKMDEALARLEAKEVDILVGTQLIKGQVYNEHVGLVAVTQLDSILGFPDFRAYERAYQLLYQLMLRSGASRLYIQTNNPANSFPDLLREGDYKAFIGKQLEERQMLFFPPFSRLIRIEFRAGEESLVERIASDYAASLAAHLPEQSLSPVLVPPISRLRNAFIRELLLRLPLSSSVSATRNILDTIRTTLQTRTQEYKRVRILFDVDPL	not soluble
MRKQALHPRTAVINKAQKNQSKRARSDALLWLAANFPEAFDNSLRIRPLKIGIMSDILQHAEKAEQVGISKSKLREAVVLFTRRLDYLACLKAREVRIDLHGNPVAEVTEEEAEHASMKIKKRVEKSVKNARKQVNAKAANHSHVNSQPSAVSSVKPMNSFDSHPEPLLPIYPLRSSTYASQNVAMQSAKSPSVVVKHKAPKQYDPDAVARLKEKLGLSRKAEEKKETTE	not soluble
MRGSHHHHHHTDPALRAIVISRHVAIPDGELEITAIRAQGAGGQHVNKTSTAIHLRFDIRASSLPEYYKERLLAASHHLISSDGVIVIKAQEYRSQELNREAALARLVAMIKELTTEKKARRPTRPTRASKERRLASKAQKSSVKAMRGKVRSGREGLCGR	soluble
MLKIGIIPNEDKDEELKYTRILVDSIKKCGGTAIVCDDIALKLGDKESNINEDNIVDMSDVMVCLGGDGTFLKAARMTVVKGKPLLGVNLGKLGFLADVDKNDIENAVKRLVEDKFTVDERMMLDTVIVRDGKIIAEDIVLNDVVISRGAISRILHLKTYINDAFMDLYPGDGLIISTPTGSTAYSLSAGGPLVEPDVDLIICTPICPHLLYSRSFITTADRVIKVVVAESSSHEAMVTVDGQNGYEVRGGDVIITKKSRIRMPMVRLNGKNFFDVLRGKIYDRGESMK	not soluble
MCLAIPSKVIAIKDNVVLLETLGVQREASLDLMGESVKVGDYVLLHIGYVMSKIDEKEALESIELYQEMIARMNETQ	not soluble
MEAVRPDSCESGPAAPRAEERPAPEARVHFRVTRFIMEAGVKLGMQSIPIATACTIYHKFFCEINLDAYDLYLVAMSSIYLAGKVEEQHLRTRDIINVSHRYFNPGSEPLELDSRFWELRDSIVQCELLMLRVLRFQVSFQHPHKYLLHYLISLKNWLNRYSWQRTPISVTAWALLRDSYHGGLCLRFQAQHLAVAVLYLALQVYGVEVPAEGEAEKPWWQVFSDDLTKPIIDNIVSDLIQIYTMDTEIP	not soluble
